Measured values reported in US20250277048A1 (Regeneron, published 2025).

How the values were obtained:
[1] = biological target: T1, human CD40 (hCD40) expressed on cells (human, UniProt P25942 21-277); experiment: cell-based or functional assay
[2] = biological target: T1, human CD40 (hCD40) expressed on cells; experiment: cell-based or functional assay; remark: listed apart in the source
[3] = biological target: T1, human CD40 (hCD40) expressed on cells; experiment: cell-based or functional assay; remark: listed apart in the source
[4] = biological target: T1, human CD40 (hCD40) expressed on cells; experiment: cell-based or functional assay; remark: listed apart in the source
[5] = biological target: T1, human CD40 (hCD40) expressed on cells; experiment: cell-based or functional assay; remark: listed apart in the source
[6] = biological target: T1, human CD40 (hCD40) expressed on cells; experiment: cell-based or functional assay; remark: listed apart in the source
[7] = biological target: T2, human CD40 extracellular domain expressed with a C-terminal myc-myc-hexahistidine tag (human); experiment: ELISA blocking of 40 nM hCD40-mmH binding to 9His-hCD40L
T2 construct: also called hCD40-MMH; hCD40-mmH
T2 sequence (chain, as listed by the source limits assumed): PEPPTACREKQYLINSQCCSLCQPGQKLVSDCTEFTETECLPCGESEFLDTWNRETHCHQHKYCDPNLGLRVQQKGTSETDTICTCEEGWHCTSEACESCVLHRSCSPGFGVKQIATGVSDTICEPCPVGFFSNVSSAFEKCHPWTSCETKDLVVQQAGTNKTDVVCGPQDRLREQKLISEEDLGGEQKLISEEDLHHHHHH
Source text: An ELISA-based blocking assay was developed to determine the ability of C40×CD40 bispecific antibodies to block the binding of the hCD40 monomer to plate-coated hCD40L. The recombinant human CD40-mmH protein (hCD40-MMH; REGN3094; SEQ ID NO: 53) used in the experiments comprises a portion of the human CD40 extracellular domain (amino acids P20-R193) fused to 2×Myc peptide and 6×histadine (SEQ ID NO: 1110) at the C-terminus of human CD40, and the human CD40L (accession #NM_000074.2) with amino acids E108-L261 of the extracellular domain with 9×His-2×(SGGG)-IGER at the N-terminus (9His-hCD40L) was commercially obtained from Biolegend.
In the blocking assay, 9His-hCD40L was passively absorbed at a concentration of 5 μg/mL in PBS on a 96-well microtiter plate overnight at 4° C. […] In a separate 96-well microtiter plate, a fixed amount of 40 nM hCD40-mmH was pre-mixed with one of the following antibodies, at concentrations ranging from 977 pM to 1 μM in PBS+0.5% BSA: (1) CD40×CD40 bispecific antibodies (REGN16431, REGN16432, REGN16634, and REGN16335); (2) parental CD40 mAbs (bivalent antibodies comprising 2 fragment antigen-binding [Fab] arms identical to one of anti-CD40 Fab of CD40×CD40 antibodies); (3) CD40×Irrelevant antibodies (bivalent antibodies that incorporate one Fab arm identical to one of anti-CD40 Fab of CD40×CD40 antibodies and another Fab arm specific to an irrelevant antigen); and (4) human IgG4 with Fc mutation isotype control antibodies (REGN7540 and REGN4513). The fixed concentration of hCD40-mmH was selected to be near the concentration (EC₅₀ value) that generated 50% of the maximal binding to the plate-adhered 9His-hCD40L. After one-hour incubation, the antibody-antigen complexes were transferred to the microtiter plate coated with 9His-hCD40L. After one hour incubation at room temperature, the plates were washed, and plate-bound hCD40-mmH protein was detected with horseradish peroxidase (HRP) conjugated goat anti-c-Myc antibody. The plates were then developed using TMB substrate solution (BD Biosciences) according to the manufacturer's recommended procedure and the absorbance at 450 nm (OD₄₅₀) was measured on a SpectraMax i3×plate reader.

[8] = biological target: T1, human CD40 (hCD40) expressed on cells; experiment: cell-based or functional assay; remark: listed apart in the source
[9] = biological target: T1, human CD40 (hCD40) expressed on cells; experiment: flow cytometry, Ramos 2G6.4C10 cells
Method: (§1) Cells were washed with 2% FBS (w/v) in 1×PBS (flow cytometry staining buffer) by centrifugation with benchtop Centrifuge 5810R (Eppendorf®, Hamburg, Germany). Cells were incubated for 30 minutes at 4° C. with serial dilutions of following antibodies ranging from 1.7 pM to 100 nM in flow cytometry staining buffer (1) anti-CD40×CD40 bispecific antibodies, or (2) parental anti-CD40 antibodies (bivalent antibodies comprising 2 fragment antigen-binding [Fab] arms identical to one of the two anti-CD40 Fab of bispecific anti-CD40×CD40 antibodies), or (3) anti-CD40×Irrelevant antibodies (bivalent antibodies that incorporate one Fab arm identical to one of anti-CD40 Fab of anti-CD40×CD40 antibodies and another Fab arm specific to an irrelevant antigen, i.e. birch pollen main allergen Bet v1), or (4) human IgG4 isotype control antibodies with Fc mutation. After washing, cell bound antibodies were detected with 2.5 μg/ml Allophycocyanin (APC)-conjugated goat anti-human IgG antibody specific for the Fcγ fragment (Jackson Immunoresearch, West Grove, PA) for 30 minutes at 4° C. Cells were washed and subsequently fixed with 50% solution of Cytofix™ Fixation Buffer (BD, Franklin Lakes, NJ) in flow cytometry staining buffer for 20 minutes at room temperature. Cells were washed and resuspended in flow cytometry staining buffer and stored at 4° C. for downstream flow cytometry analysis.
(§2) Acquisition of fluorescence signals were recorded on the ZE5 Cell Analyzer (Bio-Rad, Hercules, CA) according to the manufacturer's recommended procedure and flow cytometry data analysis was performed using the open-source R packages flowCore, flowStats, flowDensity, ggCyto, and flowAI. Multiplexed samples were deconvoluted and individual cell populations were identified based on their unique CellTrace™ fluorescence signature. APC Median Fluorescence intensity (MFI) was recorded to indicate the binding intensity of each antibody over a range of concentrations. Antibodies with MFI greater than 1500 at the highest tested concentration (100 nM) were classified as specific binders. In addition, direct binding signals (APC MFI) were analyzed as a function of the antibody concentration and data were fitted with a sigmoidal (four-parameter logistic) dose-response model using GraphPad Prism™ software.

[10] = biological target: T3, Macaca fascicularis CD40 (mfCD40) expressed on HEK293/D9/mfCD40 cells (Macaca fascicularis, UniProt G7PG38 21-278); experiment: flow cytometry, HEK293/D9/mfCD40 cells
T3 construct: whole, on cells; also called monkey CD40
Method: as §1, §2

[11] = biological target: T1, human CD40 (hCD40) expressed on cells; experiment: cell-based or functional assay; remark: listed apart in the source
[12] = biological target: T1, human CD40 (hCD40) expressed on cells; experiment: cell-based or functional assay; remark: listed apart in the source
[13] = biological target: T1, human CD40 (hCD40) expressed on cells; experiment: flow cytometry, HEK293/D9/hCD40 cells
Method: as §1, §2

T1 sequence (P25942 21-277): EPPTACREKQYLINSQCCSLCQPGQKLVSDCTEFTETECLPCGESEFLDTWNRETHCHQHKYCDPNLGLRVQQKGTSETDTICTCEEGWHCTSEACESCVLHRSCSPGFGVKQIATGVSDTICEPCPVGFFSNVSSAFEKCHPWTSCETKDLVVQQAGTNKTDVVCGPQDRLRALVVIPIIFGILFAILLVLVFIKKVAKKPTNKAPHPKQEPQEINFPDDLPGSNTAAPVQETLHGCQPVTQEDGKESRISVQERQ

Row | % max blockade relative to no mAb, IL-6, assay #2 donor 1 [2] [%] | % max blockade relative to no mAb, IL-6, assay #2 donor 2 [2] [%] | % max blockade relative to no mAb, TNFa, assay #2 donor 1 [5] [%] | % max blockade relative to no mAb, TNFa, assay #2 donor 2 [5] [%] | % max blockade relative to no mAb, IL-10, assay #2 donor 1 [6] [%] | % max blockade relative to no mAb, IL-10, assay #2 donor 2 [6] [%] | % Blocking at 1 uM mAb [7] [%] | Max % activation, no ligand, Ramos NFkB-luc [8] [%] | Max % inhibition, 500 pM hCD40L, Ramos NFkB-luc [8] [%] | EC50 [9] [nM] | MFI at 100 nM [9] [MFI] | EC50 [10] [nM] | MFI at 100 nM [10] [MFI] | IC50, 900 pM hCD40L, Raji NFkB-luc [11] [M] | Max % activation, no ligand, Raji NFkB-luc [11] [%] | Max % inhibition, 900 pM hCD40L, Raji NFkB-luc [11] [%] | Max % activation, no ligand, THP-1 NFkB-luc [12] [%] | Max % inhibition, 10 nM hCD40L, THP-1 NFkB-luc [12] [%] | EC50 [13] [nM] | MFI at 100 nM [13] [MFI] | Binder | also measured
1 | 88.6 | 88.3 | 62 | 50.6 | 88.1 | 90.5 |  |  |  |  |  |  |  |  |  |  |  |  |  |  | REGN11209 (comparator anti-CD40 antibody) (antibody, human IgG1, kappa, N297A, V domains shown) VH: QVQLVESGGGVVQPGRSLRLSCAASGFTFSSYGMHWVRQAPGKGLEWVAVISYEESNRYHADSVKGRFTISRDNSKITLYLQMNSLRTEDTAVYYCARDGGIAAPGPDYWGQGTLVTVSS VL: DIVMTQSPLSLTVTPGEPASISCRSSQSLLYSNGYNYLDWYLQKPGQSPQVLISLGSNRASGVPDRFSGSGSGTDFTLKISRVEAEDVGVYYCMQARQTPFTFGPGTKVDIRR | % max blockade relative to no mAb, IL-6, donor 1 [1]: 84.2%; % max blockade relative to no mAb, IL-6, donor 2 [1]: 91.3%; % max blockade relative to no mAb, IL-6, donor 3 [1]: 91.3%; % max blockade relative to no mAb, TNFa, donor 1 [3]: 53.9%; % max blockade relative to no mAb, TNFa, donor 2 [3]: 71.4%; % max blockade relative to no mAb, TNFa, donor 3 [3]: 73.9%; % max blockade relative to no mAb, IL-10, donor 1 [4]: 84.1%; % max blockade relative to no mAb, IL-10, donor 2 [4]: 91.7%; % max blockade relative to no mAb, IL-10, donor 3 [4]: 91.4%
2 | 89 | 88.1 | 61.9 | 52.3 | 87.1 | 90.9 |  |  |  |  |  |  |  |  |  |  |  |  |  |  | REGN20484 (bispecific antibody, human IgG4 S228P, kappa) heavy 1: EVQLVESGGGLVQPGGSLRLSCAASGFTFGSYGMAWVRQAPGKGLEWVSAISGSGDYTNYADSVKRRFTISRDNSKNTLYLQMSSLRAEDTAVYYCAKEKTGTTGYLYSGMDVWGQGTTVTVSSASTKGPSVFPLAPCSRSTSESTAALGCLVKDYFPEPVTVSWNSGALTSGVHTFPAVLQSSGLYSLSSVVTVPSSSLGTKTYTCNVDHKPSNTKVDKRVESKYGPPCPPCPAPGGGGPSVFLFPPKPKDTLMISRTPEVTCVVVDVSQEDPEVQFNWYVDGVEVHNAKTKPREEQFNSTYRVVSVLTVLHQDWLNGKEYKCKVSNKGLPSSIEKTISKAKGQPREPQVYTLPPSQEEMTKNQVSLTCLVKGFYPSDIAVEWESNGQPENNYKTTPPVLDSDGSFFLYSRLTVDKSRWQEGNVFSCSVMHEALHNHYTQKSLSLSLGK heavy 2: EVQLVESGGGLVQPGGSLRLSCAASGFTFSSYAMNWVRQAPGKGLEWVSIISGTIGKTYYADSVKGRFTISRDNSKNTLYLQMNSLRGEDTAVYYCAKDTERDITGSPFDYWGQGTLVTVSSASTKGPSVFPLAPCSRSTSESTAALGCLVKDYFPEPVTVSWNSGALTSGVHTFPAVLQSSGLYSLSSVVTVPSSSLGTKTYTCNVDHKPSNTKVDKRVESKYGPPCPPCPAPGGGGPSVFLFPPKPKDTLMISRTPEVTCVVVDVSQEDPEVQFNWYVDGVEVHNAKTKPREEQFNSTYRVVSVLTVLHQDWLNGKEYKCKVSNKGLPSSIEKTISKAKGQPREPQVYTLPPSQEEMTKNQVSLTCLVKGFYPSDIAVEWESNGQPENNYKTTPPVLDSDGSFFLYSRLTVDKSRWQEGNVFSCSVMHEALHNRFTQKSLSLSPGK light: not shown | 
3 |  |  |  |  |  |  | 10 | 4 | -133 | 0.47 | 2660 | 1.1 | 32900 | 2.72e-11 | 10 | 55 | 1 | -92 | 0.76 | 20500 | REGN17289 (antibody, V domains shown, bivalent mAb with two Fab arms identical to the 30027 arm; also called Parental CD40 (30027)) VH: EVQLVESGGGLVQPGGSLRLSCAASGFTFSSYAMNWVRQAPGKGLEWVSIISGTIGKTYYADSVKGRFTISRDNSKNTLYLQMNSLRGEDTAVYYCAKDTERDITGSPFDYWGQGTLVTVSS VL: not shown | EC50 (potentiation), 500 pM hCD40L, Ramos NFkB-luc [8]: 7.51e-12 M; EC50 (potentiation), 10 nM hCD40L, THP-1 NFkB-luc [12]: 0.016 nM
4 |  |  |  |  |  |  | 94 | 6 | 88 | 1.3 | 2420 | 9.2 | 11800 | 4.28e-11 | 14 | 90 | 0 | 98 | 1.2 | 20300 | REGN17288 (antibody, V domains shown, also called Parental CD40 (21519)) VH: QLQLQESGPGLVRPSETLSLTCSVSGASMNTNNYYWGWIRQPPGKGLEWIGSGYYNGNTYYNPSLKSRVTISVDTSKNQFSLKLNSVTAADTAVYYCARQTPPRIIGSPNIWGQGTMVTVSS VL: not shown | IC50 [7]: 52 nM; IC50, 500 pM hCD40L, Ramos NFkB-luc [8]: 4.07e-11 M; IC50, 10 nM hCD40L, THP-1 NFkB-luc [12]: 0.334 nM
5 |  |  |  |  |  |  | 91 | 10 | 77 | 0.87 | 2440 | 4.3 | 23200 | 1.35e-10 | 11 | 81 | 4 | 96 | 0.98 | 20500 | REGN17544 (antibody, V domains shown, bivalent mAb with two Fab arms identical to the 21520 arm; also called Parental CD40 (21520)) VH: EVQLVESGGGLVQPGGSLRLSCAASGFTFGSYGMAWVRQAPGKGLEWVSAISGSGDYTNYADSVKRRFTISRDNSKNTLYLQMSSLRAEDTAVYYCAKEKTGTTGYLYSGMDVWGQGTTVTVSS VL: not shown | IC50 [7]: 71 nM; IC50, 500 pM hCD40L, Ramos NFkB-luc [8]: 1.89e-10 M; IC50, 10 nM hCD40L, THP-1 NFkB-luc [12]: 1.13 nM
